Source: the DeepSol protein solubility set

assay: soluble on expression in E. coli; label from the status in PepcDB or PDB records

| Sequence | soluble on expression in E. coli |
| --- | --- |
| MNSPLPDVALTEVSSALIALDWVGMQGVEVPLTLGEQGATHPVHAYADLQVDLTDPSVKGIHMSRLYRLLDGFAEHQVLTPETLSALLEAMVESHVDCHSSGARITLTFNLLCRRPALVTEGLSGWKSYPVKLEAVWRAGRLCLDVSADITYSSTCPCSAALSRQLLEEAFVARFGRQSFVDPMQVAAWLRENASYATPHSQRSVATVQVRVAEQATEMGLMALIDTVEQALGTPVQTAVKRADEQAFARLNGQNLMYVEDAARKIQQALEGRYPASSVSVRHFESLHPHDAAAQTSSYLS | not soluble |
| MALIQSCSGNTMTTDTIVAQATAPGRGGVGIIRVSGPLAAHVAQTVTGRTLRPRYAEYLPFTDEDGQQLDQGIALFFPNPHSFTGEDVLELQGHGGPVVMDMLIRRILQIKGVRPARPGEFSERAFLNDKMDLTQAEAIADLIDASSEQAAKSALQSLQGEFSKRIHTLVESLIHLRIYVEAAIDFPEEEIDFLADGKVSADLQTIIDNLAAVRREANQGAIMREGMKVVIAGRPNAGKSSLLNALSGKESAIVTDIAGTTRDVLREHIHIDGMPLHIIDTAGLRDASDAVEKIGIERAWEEIRQADRVLFMVDGTTTEATDPQDIWPDFVDKLPENIGITVIRNKADQTGEPLGICHVNQPTLIRLSAKTGQGVDALRQHLKECMGFSGNQEGGFMARRRHLDALERAAEHLAIGQQQLEGYMAGEILAEELRIAQQHLNEITGEFSSDDLLGRIFSSFCIGK | not soluble |
| MSLSDARLVADLSDVFTDIGVEHAVSGAQIEEFVARMPEVGHSLVAVHRRLRAATEELEGYRSRATAETELPPARPMPFEEVRDFFYDRNNYIHDLDMAAERMFTESGMRTGGLDIQLAELMRDRFGISVVIDDNLPDTAKRRYHPDTKVLRVAHWLMPGQRAFQIATQLALVGQSDLISSIVATDDQLSTEARGVARIGLANYFAGAFLLPYREFHRAAEQLRYDIDLLGRRFGVGFETVCHRLSTLQRPRQRGIPFIFVRTDKAGNISKRQSATAFHFSRVGGSCPLWVVHDAFAQPERIVRQVAQMPDGRSYFWVAKTTAADGLGYLGPHKNFAVGLGCDLAHAHKLVYSTGVVLDDPSTEVPIGAGCKICNRTSCAQRAFPYLGGRVAVDENAGSSLPYSSTEQSVEGHHHHHH | soluble |
| MGSDKIHHHHHHMKRINRFAVQIDVEGRTELAHLHDPGRLLEIVYPGNEVLVRRTDGPKLKWRIEFGKINGRYVLIDSGLHSDIARRFLPEGAVPEVRVGRKRIDFRYGDDYIEVKGCTLMANGIAMFPDAPTKRGLEHLKTLETLASSGYRSHVMMIITRDDVRCFYPNFETDPKFAEAFLRLVPAYVKAHFLTFGFDGLYLRYAGSIGLCADVGHGTNGRL | not soluble |
| MGSDKIHHHHHHMHILFLTHYFPPEVNAPASRTYENARRWVRDGHHVTVITCAPNHPKGVIYPGYRNRWCQQEDLDGIRVLRVKTYLSANKGFAKRIANYLSYMLSSTVFSCLVRDIDVVVSTSPQFFCGLAGYFVSRARSAPWVVEIRDLWPESIIAVGAIRNRTVIDLLEGLETFMYRRADHVVAVTDAFKRHIAGRGVGRDRISVIKNGADLERFTSGPRENSFRREHGLEGKFVVSYVGTHGMAHGLNTIFETAEAMRSCEDIVFLLVGDGAEREPLLARKAELGLTNVLMLPQQPKERMPEIINASDACMVLLKKTDLFKTVIPSKIFEAMAMERPIILGVEGESREIVEEGCCGLCIEPENAAELADAIRRLRDDGKLADELGQNGRRFVSAVFNREVLARRYLETLSSMVPLPASTIGVIGKELP | not soluble |
| MLPNGRKWLDLWRKNVTVTAGGFLAISATTGVAGYEMAKDDVTLIKNGNKQEIRTHAKTVKELLAEQNIQPRKEDYVYPSLHSPITDDLHIVWEASKEVTLTVNGKKKKIWTTADTVAELLRSQHVAVGAYDKVAPALSAKIQKGMDIGVEKAFPVHVNVGGKQQQVWTTSTTVADFLKQQGIQLGQFDRIEPSLHETVKEQMTIRVIRVKKVTDVVEEPVDFAVVTKRDDSLPKGERRVIQPGEKGMVQKTYEVTLENGKETARKLIAAKTLKESKARIVAIGTKTVRSAAAPDRPSSRGSDHAAKEFYVTATAYTAYCAGCSGITSTGINLRKNPSAKVIAVDPSIIPLGSKVYVEGYGYAIAADTGSGIRGYKIDVFFPERSDAFRWGRKRVKIRVLP | not soluble |
| MGSDKIHHHHHHMSLSRLSIDAFRNIDSAQLAPGAGLNLIYGHNGSGKTSILEAIYFLGMGRSFRSHLSQRVIQNDADCLTLFAVAEGQAGDSRIGLRRHRSGDTEVKIDGEKVKRLSQLAEALPIQVITPESFSLLFEGPSARRQFIDWGAFHASKQFHLAWMNTRRILKQRNQLLRDGASYEHIAFWDKELIRYALEVTAIRNDYVGSLNGVLKGIIGEFLPDVDIRVSFTRGWDSKTDFSELLQSQYARDLAIGHTVSGPHKADLRLRVGNLPAQDALSRGQLKLLVCALRIAQGKLLKQQIDKHSIYLVDDLPSELDAKHRQLLLKELIDTGAQLFVTAIEPSAIVDSLPVPPDRMFHVQAGRVTQTK | not soluble |
| MGSDKIHHHHHHMTGFYEFFSLPDRVEVVCPLCDGCATFTYAHVLQIEKKDAHLFENEQFEIKLFNQRFAHKWPCVLFFPPLFGAVSWREKFPEKYQGASTWEHRANSAFTDGTDLGLICCHQCMAKQKHQLEWPQDAFYSIEFKGHLLWAFNKMMMQQIRDYIQAKDRDAVFASEPIVIRHLPTVFKLAKNREGLVKKINKLIYRP | not soluble |
| MKLWSGGIQRDQNADSTVAFVKRDIEAEIYLMKYEILSLIAYHLDLAQRRLITEAESKCIINSLISLLQDSPKIDPEQEDAHTAVENAVIERCGDMGRNVRLFLSRNEQVHANVLMFTIERCHSIISILLDSIKVLKGADLKGLLPGTTHFMPAMPVTAATYSNYIENSLALAIRSIDRSLADASVLPYGYGSGYGSPNSGKLKVMSEMLGIGPVLKNPMIASSLYQFTIMQISNSIAGLSITLSRIAMDLIEYYRDGYVSLSDEFTTGSSLMPNKRNPDYLELLQGMAAVSSSVAVMSAMATMNKTSGYHRDFQMLKDSYIDMLNYIEEALLRLPDLFKGLRFEITDPMMLPGSIFATGNAWEDFANTHDWKQSYANIGRKIREKQDLKRYMPEDYVDIVEMHYLEEIEKKYGEILKKWDYLIEKAEAYISE | soluble |
| MREPGFWHRPPSLVSRLLLPIAAIYGNIAAARMQKAGTTVGVPVLCVGNYHMGGAGKTPTTLALVALLREFGETPVVLSRGYGGRLQGPVQVDPSRHSAADIGDEPLMMARRVPVVVARDRTDGAALACALGATVILMDDGFQNPALTKDASLIVVDSHRSIGNGSVFPAGPLRAPLPLQVARTDALVVVGDGTAADGLAQQITTKGGVVLRARLVPEPASVEALRGRRVLAFAGIGDPARFVATLRDSGVEVVEQRAFADHHPFTAEELAELAAAAKRDGLTLVTTEKDLARIGGAQQALGVEIVPFAVTLAFGDEAKLRLFLLDRLNGARAAKLAGRRMAGDPLEHHHHHH | not soluble |
| MINARGETMARFTVVIPYYQKQHGVLGRALASVFAQTYQDFDLVIVDDESPYPIDQELAEISQEQKDRIVVIKQANAGPGGARNTGLDHVPDGTDYVAFLDSDDMWTPDHLRNAAFALNTYGGECYWASMQASDEFYYHFAISELEKNEGAARLSEKPLVIELPDLASVMLRNWSFLHLSCMVIGRPLFEKIRFDPALRLAAEDVLFFCDSILASKRTLLCDDAGAMRGMGVNIFHSIDNTSPEFLRQQFNTWVALDTLEGRFSRRPADVASIASYKNTARKQALWSQAGNLKRRRAPQFGLLFKWAMRDPALLRAAFELGAGKIVRSRLEHHHHHH | not soluble |
| MIKASLVFFAFLALASGRRHHYDYYDCEPERGPRGREGREGPRGAQGAPGPNGTGFFWPGTCEQSDCPDGWISVNRKINNDVEKKWCINMFWNQATNDLYKTSEKVCNSYGGVMTGFKDKGEFISVFALLKNRFPNIKPVSQVMIGARRLETCASISNFGNCTITKGTKWTDLVMSIDSFFNELQQSARFSPLKKCIVANPTNLKLYVANCNVLESDYPQDLFMCGRFAPCKK | not soluble |
| MGSDKIHHHHHHMKVNLDYLGRLFTENELTEEERQLAEKLPAMRKEKGKLFCQRCNSTILEEWYLPIGAYYCRECLLMKRVRSDQTLYYFPQEDFPKQDVLKWRGQLTPFQEKVSEGLLQVVDKQKPTLVHAVTGAGKTEMIYQVVAKVINAGGAVCLASPRIDVCLELYKRLQQDFSCGIALLHGESEPYFRTPLVVATTHQLLKFYQAFDLLIVDEVDAFPYVDNPMLYHAVKNSVKENGLRIFLTATSTNELDKKVRLGELKRLNLPRRFHGNPLIIPKPIWLSDFNRYLDKNRLSPKLKSYIEKQRKTAYPLLIFASEIKKGEQLAEILQEQFPNEKIGFVSSVTEDRLEQVQAFRDGELTILISTTILERGVTFPCVDVFVVEANHRLFTKSSLIQIGGRVGRSMDRPTGDLLFFHDGLNASIKKAIKEIQMMNKEAGL | not soluble |
| MGSDKIHHHHHHMSAKQYDTLNNAEITSLAHRALACYPAALQGEVRLLCRSENATFLVTSAGKRYALRLHRSHYHQKAEIESELLWLDALRETGIVVPEAVRDASGERVQSLGLSDGSCRYAVLFHWIDGEMPTTSIDPRTFQQLGEITAHLHQHSRQWQKPDGFQRIVWDHHTMVSAQSHWGSWRDAPNLSRDEHGIVEEAIERMGTEMAEFGKAPHRYGLIHADLRLTNLLLHRGETRVIDFDDCGMGWYLHDLAAAISFVEHHPRAAEWVENWLCGYERVAHVSDEELALLPTLLIQRRIQLTAWVGSHAETEMAQSLGPDWASHSVRLCRRYLETRDLPLGVA | not soluble |
| MGSDKIHHHHHHMAKFIMVVGTSSNSGKTVLVSGICRMLSNKGYKVAPFKSQNMSLNSRVSVEDGEIAVAQYTQAMAARAEPSVHFNPILLKPKGNFVSQVIVHGNPYEDKDYNEYRSKKDDFLVKIKESIDYLDKNYDYVVIEGAGSCCEINLLNDDIANLKVAEIAGADAILVSDIDRGGVFASIYGTVQLLPENWKKLLKGFVINKFRGNIDVLKDGFEKIEELTNIPVIGTIPYDETLVLPEEDSQALDGKRVFGNLKSPIEVNVVKFSKIANFTDVDPFSSDCLMKYIDFNENITGDILILPGTRCSTVEMDLMKKYGMDKKILEFVENGGIVLGICGGYQALGKMLFDEDFSEGDVGTISGLGLFDMETTFGNKKAIKNSTGKISIFNQNFDVSGYELHEGYSVSNETPLISLSKGFGNCGDSYDGSFKMIGDSYIFGTYFHGILENFEFRNYLVNLARSKKNLSKIEDDTYAELFNENMDKLSKIIEENLDFSKIIG | not soluble |
| MNRTALVLGCLLVATPALAQSVTEKTGVNSVLGIAPTTPDFVKQVAISDMFEIQSNQLAERKGNAAQQAFAKQMIADHTKTSSELKAMVSDGKVKAELPTALDSAHQSKLDKLKNANGAEFSETFDEQQVSAHKDAVSLFERYAKGGDNDALKKWAGTTLPKLQHHLEMAQQLERDRTNTTSESKAKK | not soluble |
| MPYLLEMKNITKTFGSVKAIDNVCLRLNAGEIVSLCGENGSGKSTLMKVLCGIYPHGSYEGEIIFAGEEIQASHIRDTERKGIAIIHQELALVKELTVLENIFLGNEITHNGIMDYDLMTLRCQKLLAQVSLSISPDTRVGDLGLGQQQLVEIAKALNKQVRLLILDEPTASLTEQETSILLDIIRDLQQHGIACIYISHKLNEVKAISDTICVIRDGQHIGTRDAAGMSEDDIITMMVGRELTALYPNEPHTTGDEILRIEHLTAWHPVNRHIKRVNDVSFSLKRGEILGIAGLVGAGRTETIQCLFGVWPGQWEGKIYIDGKQVDIRNCQQAIAQGIAMVPEDRKRDGIVPVMAVGKNITLAALNKFTGGISQLDDAAEQKCILESIQQLKVKTSSPDLAIGRLSGGNQQKAILARCLLLNPRILILDEPTRGIDIGAKYEIYKLINQLVQQGIAVIVISSELPEVLGLSDRVLVMHEGKLKANLINHNLTQEQVMEAALRSEHHVEKQSV | not soluble |
